In paper PMC4522201 one finds Kd data, which are given here for two substances.

The experiment addresses CEP-HSA (2-(ω-carboxyethyl)pyrrole derivative of HSA) (human) (UniProt P02768). Nature of the experiment: SPR.

On to “CD36-Fc chimera (from UniProt P16671 1-472) (Fc fusion)”, for which the dissociation constant (Kd) worked out at 6.53 nM. As for “TLR2-Fc chimera (from UniProt O60603 21-588) (Fc fusion)”, the dissociation constant (Kd) worked out at 11.8 nM.

Broadly, the Kd is the free concentration of one partner at which half of the binding sites on the other are occupied at equilibrium, for simple one-to-one binding. Read a high Kd as weaker binding.
